In the supplement of paper PMC7125110:
± gives the standard error. For some of these results: Variants at the floor of the assay were thinned out.

B1: glmS ribozyme (parent)
chain: AUAAAAGCGCCAGAACUACAGAAAUGUAGUUGACGAGGAGGAGGUUUAUCGAAUUUUCGGCGGAUGCCUCCAAA

How the values were obtained:
Conditions in all cases: with glucosamine-6-phosphate
[1] = variants of: B1; assay: kcat; higher = faster cleavage; RNA array
Procedure, shortened: (§1)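 Barcoded ribozyme variants were transcribed in situ on sequenced MiSeq chips by E. coli RNA polymerase. At 37 °C, a hybridised Cy3 probe tracked them while glucosamine-6-phosphate (40 μM to 10 mM) in HEPES/KCl/Mg(OAc)2 buffer flowed in and tiles were imaged over ~14 h. Per-tile medians of signals normalised to baseline and to non-cleaving reference variants were fit to one- or two-exponential decays, giving kobs. kcat and KM came from weighted Michaelis–Menten fits across concentrations.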

[2] = variants of: B1; assay: KM; higher = weaker cofactor use; RNA array
Procedure, shortened: as §1

[3] = variants of: B1; assay: self-cleavage kobs at 640 uM GlcN6P; higher = faster cleavage; RNA array
Procedure, shortened: as §1

[4] = variants of: B1; assay: self-cleavage kobs at 2500 uM GlcN6P; higher = faster cleavage; RNA array
Procedure, shortened: as §1

[5] = variants of: B1; assay: self-cleavage kobs at 10000 uM GlcN6P; higher = faster cleavage; RNA array
Procedure, shortened: as §1

[6] = variants of: B1; assay: self-cleavage kobs at 40 uM GlcN6P; higher = faster cleavage; RNA array
Procedure, shortened: as §1

[7] = variants of: B1; assay: self-cleavage kobs at 160 uM GlcN6P; higher = faster cleavage; RNA array
Procedure, shortened: as §1

| Variant | kcat [1] | KM [2] | self-cleavage kobs at 640 uM GlcN6P [3] | self-cleavage kobs at 2500 uM GlcN6P [4] | self-cleavage kobs at 10000 uM GlcN6P [5] | self-cleavage kobs at 40 uM GlcN6P [6] | self-cleavage kobs at 160 uM GlcN6P [7] |
| --- | --- | --- | --- | --- | --- | --- | --- |
| G44A G66U | 2.15e-05 ± 1.4e-06 s⁻¹ | 2150 ± 520 µM | – | – | – | – | – |
| U47A A48U | 0.000219 ± 1.3e-05 s⁻¹ | 1570 ± 190 µM | 6.18e-05 ± 1e-05 s⁻¹ | 0.000143 ± 2.2e-05 s⁻¹ | 0.000181 ± 3.1e-05 s⁻¹ | – | – |
| U47A A48G | 7.44e-05 ± 1.1e-05 s⁻¹ | – | 7.58e-05 ± 2e-05 s⁻¹ | 8.16e-05 ± 2.9e-05 s⁻¹ | 6.69e-05 ± 1.3e-05 s⁻¹ | – | – |
| G43U | 4.89e-05 ± 4.3e-06 s⁻¹ | 986 ± 410 µM | 1.42e-05 ± 2e-06 s⁻¹ | 3.98e-05 ± 1.6e-06 s⁻¹ | 4.31e-05 ± 1.2e-06 s⁻¹ | < 1e-05 s⁻¹ | – |
| U46C U57C | 9.95e-05 ± 2e-05 s⁻¹ | – | – | 4.88e-05 ± 2e-05 s⁻¹ | 7.09e-05 ± 1.8e-05 s⁻¹ | < 1e-05 s⁻¹ | – |
| U46A C67U | 0.00326 ± 0.0007 s⁻¹ | 2370 ± 780 µM | 0.000811 ± 0.00012 s⁻¹ | 0.00173 ± 0.00027 s⁻¹ | 0.00257 ± 0.00033 s⁻¹ | 9.11e-05 ± 2.1e-05 s⁻¹ | 0.000165 ± 2.9e-05 s⁻¹ |
| U46C A53G | 0.00366 ± 0.0005 s⁻¹ | 1430 ± 280 µM | 0.00119 ± 0.00015 s⁻¹ | 0.0025 ± 0.00035 s⁻¹ | 0.00272 ± 0.00067 s⁻¹ | 8.69e-05 ± 1.5e-05 s⁻¹ | 0.000402 ± 6.7e-05 s⁻¹ |
| U46C A53U | 0.00168 ± 0.00018 s⁻¹ | 1640 ± 260 µM | 0.000471 ± 9.9e-05 s⁻¹ | 0.0012 ± 0.00023 s⁻¹ | 0.00133 ± 0.00028 s⁻¹ | 3.88e-05 ± 1.2e-05 s⁻¹ | 0.000145 ± 3.3e-05 s⁻¹ |
| U45G A52U | 0.000421 ± 0.0001 s⁻¹ | – | – | 7.57e-05 ± 2e-05 s⁻¹ | 0.000189 ± 3e-05 s⁻¹ | < 1e-05 s⁻¹ | < 1e-05 s⁻¹ |
| U45A U47G | 0.0105 ± 0.0027 s⁻¹ | 1910 ± 690 µM | 0.00261 ± 0.00054 s⁻¹ | 0.00915 ± 0.0018 s⁻¹ | 0.00802 ± 0.0015 s⁻¹ | 0.000279 ± 6e-05 s⁻¹ | 0.000689 ± 0.00013 s⁻¹ |
| U45A C71A | 0.00337 ± 0.0013 s⁻¹ | – | 0.000907 ± 0.00022 s⁻¹ | 0.00202 ± 0.00085 s⁻¹ | 0.00396 ± 0.00073 s⁻¹ | 0.00019 ± 3.7e-05 s⁻¹ | 0.000518 ± 0.00016 s⁻¹ |
| U45A C71U | 0.0639 ± 0.022 s⁻¹ | 2060 ± 810 µM | 0.012 ± 0.0029 s⁻¹ | – | 0.0584 ± 0.019 s⁻¹ | 0.00126 ± 0.00019 s⁻¹ | 0.00507 ± 0.00093 s⁻¹ |
| U47A C61A C70G C71U | 1.64e-05 ± 4.7e-06 s⁻¹ | – | – | – | – | – | – |
| U46G G66A | 0.00746 ± 0.0016 s⁻¹ | 2580 ± 720 µM | 0.00155 ± 0.00019 s⁻¹ | 0.00502 ± 0.0011 s⁻¹ | 0.00541 ± 0.001 s⁻¹ | 0.000106 ± 1.6e-05 s⁻¹ | – |
